Test results taken from article PMC7912224.

Assays:
[1] = biological target: HBc protein (core protein) of hepatitis B virus genotype D (hepatitis B virus genotype D); experiment: SEC; VLPs incubated in GuHCl- and LiCl-containing dissociation buffer, +4 °C, 16 h; debris removed; supernatant on a Superose6 or Superdex200 column in dissociation buffer; capsid to dimers, the dimer stays
[2] = biological target: HBc protein (core protein) of hepatitis B virus genotype D (hepatitis B virus genotype D); experiment: reassociation by dialysis, tested by electron microscopy, DLS, SDS-PAGE and NAGE; purified HBc dimers dialysed from dissociation buffer against PBS at +4 °C overnight; dimers to VLPs (empty capsids)
[3] = biological target: HBc protein (core protein) of hepatitis B virus genotype F (hepatitis B virus genotype F); experiment: SEC; VLPs incubated in GuHCl- and LiCl-containing dissociation buffer, +4 °C, 16 h; debris removed; supernatant on a Superose6 or Superdex200 column in dissociation buffer; capsid to dimers, the dimer stays
[4] = biological target: HBc protein (core protein) of hepatitis B virus genotype F (hepatitis B virus genotype F); experiment: reassociation by dialysis, tested by electron microscopy, DLS, SDS-PAGE and NAGE; purified HBc dimers dialysed from dissociation buffer against PBS at +4 °C overnight; dimers to VLPs (empty capsids)
[5] = biological target: HBc protein (core protein) of hepatitis B virus genotype G (hepatitis B virus genotype G); experiment: SEC; VLPs incubated in GuHCl- and LiCl-containing dissociation buffer, +4 °C, 16 h; debris removed; supernatant on a Superose6 or Superdex200 column in dissociation buffer; capsid to dimers, the dimer stays
[6] = biological target: HBc protein (core protein) of hepatitis B virus genotype G (hepatitis B virus genotype G); experiment: reassociation by dialysis, tested by electron microscopy, DLS, SDS-PAGE and NAGE; purified HBc dimers dialysed from dissociation buffer against PBS at +4 °C overnight; dimers to VLPs (empty capsids)

HBc protein (core protein) of hepatitis B virus genotype D (natural protein)
Dimer content [1]: 30% | percent of the treated soluble VLPs as dimers [1]: 70% | stoichiometry N [1]: 2 | Reassociated dimers (percent of dimers reassociated in VLPs) [2]: 80%

HBc protein (core protein) of hepatitis B virus genotype F (natural protein)
Dimer content [3]: 30% | percent of the treated soluble VLPs as dimers [3]: 40% | stoichiometry N [3]: 2 | Reassociated dimers (percent of dimers reassociated in VLPs) [4]: 80%

HBc protein (core protein) of hepatitis B virus genotype G (natural protein)
Dimer content [5]: 30% | percent of the treated soluble VLPs as dimers [5]: 80% | stoichiometry N [5]: 2 | Reassociated dimers (percent of dimers reassociated in VLPs) [6]: 90%
